Usually stoichiometry N stands for the number of molecules, sites or subunits per partner or assembly.

Experiment in all cases: SEC
Background: Size exclusion chromatography separates by hydrodynamic size, large species first.

Data set [1] has as its target Listeria monocytogenes NrdR (Listeria monocytogenes serotype 1/2a str, S10403S) (UniProt B8DHI6).
Data set [2] shares this target. This is another data set of the same source.
Data set [3] shares this target. The source holds these as a separate data set.
Data set [4] has the same target. This is another data set of the same source.
Data set [5] shares this target. The source holds these as a separate data set.
Data set [6] has the same target. The source holds these as a separate data set.
The data set “SEC” deals with the molecule itself.

Values joined by “and” are separate entries in the source; they are usually repeats but may differ in a detail not shown here. Identical values can stand only once. Like-named read-outs stand apart in the source and are kept apart here.

Consider “Listeria monocytogenes NrdR (from UniProt B8DHI6 1-154) (natural protein)”, for which the stoichiometry N in data set [1] came to 2; in data set [2] it was 4; in data set [3], 4; in data set [4], 4; in data set [5], 4; in data set [6], 8.

B1: Streptococcus pneumoniae NrdR (natural protein, Streptococcus pneumoniae TIGR4, UniProt P67318 1-157, looked up)
chain: MRCPKCGATKSSVIDSRQAEEGNTIRRRRECDECQHRFTTYERVEERTLVVVKKDGTREQFSRDKIFNGIIRSAQKRPVSSDEINMVVNRIEQKLRGRNENEIQSEDIGSLVMEELAELDEITYVRFASVYRSFKDVSELESLLQQITQSSKKKKER
In the case of B1, the “stoichiometry N” value in “SEC” is 2 and 4.

Source of the values: doi:10.1101/2024.05.27.596032 (bioRxiv, 2024).
